The values that follow come from publication PMC8392014.

For the test, the target named is RSV phosphoprotein fragment P_(127–163) (respiratory syncytial virus (RSV)) (UniProt P12579). Nature of the test: SAXS; SEC-SAXS, 293 K, 200 µM P127-163 in 20 mM Na phosphate pH 6.5, 100 mM NaCl; scattering curve fitted with the NMR structure on the FoXs server.

The substance “RSV phosphoprotein fragment P_(127–163) (from UniProt P12579 127-163) (domain or fragment)” displayed a stoichiometry N of 4.

What is called stoichiometry N is a count of units in the complex or per binding partner.
